This is an account of results in patent US20260209293A1 (Novo Nordisk, published 2026).

*1 amine or outer side, *2 acyl side, *3 side chain or, on linkers, in order; H or OH if unused. The star is where a group is joined. C18 diacid = O=C(O)CCCCCCCCCCCCCCCCC(=O)*; γGlu = O=C(O)[C@H](CCC(=O)[*:2])N[*:1]

The target of assay [1] is T1, human calcitonin receptor (a) (human, UniProt P30988 25-474).
T1 sequence (looked up): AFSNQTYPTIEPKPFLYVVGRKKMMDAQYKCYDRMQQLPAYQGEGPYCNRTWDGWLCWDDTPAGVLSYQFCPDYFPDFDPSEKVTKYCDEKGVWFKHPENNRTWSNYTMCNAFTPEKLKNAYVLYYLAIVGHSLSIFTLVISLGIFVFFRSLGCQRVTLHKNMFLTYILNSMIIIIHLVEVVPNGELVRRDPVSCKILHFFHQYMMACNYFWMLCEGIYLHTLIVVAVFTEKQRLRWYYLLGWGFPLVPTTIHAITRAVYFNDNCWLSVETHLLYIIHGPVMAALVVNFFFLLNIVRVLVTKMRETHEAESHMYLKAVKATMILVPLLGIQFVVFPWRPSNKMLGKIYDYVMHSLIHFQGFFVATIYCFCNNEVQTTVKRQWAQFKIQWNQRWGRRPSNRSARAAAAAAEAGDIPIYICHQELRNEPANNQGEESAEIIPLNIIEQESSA
The assay can be described thus: cell-based or functional assay.

Assay [2] deals with T2, human amylin-3(a) receptor (human, UniProt P30988 25-474; O60896 24-148).
T2 sequence (looked up) 1: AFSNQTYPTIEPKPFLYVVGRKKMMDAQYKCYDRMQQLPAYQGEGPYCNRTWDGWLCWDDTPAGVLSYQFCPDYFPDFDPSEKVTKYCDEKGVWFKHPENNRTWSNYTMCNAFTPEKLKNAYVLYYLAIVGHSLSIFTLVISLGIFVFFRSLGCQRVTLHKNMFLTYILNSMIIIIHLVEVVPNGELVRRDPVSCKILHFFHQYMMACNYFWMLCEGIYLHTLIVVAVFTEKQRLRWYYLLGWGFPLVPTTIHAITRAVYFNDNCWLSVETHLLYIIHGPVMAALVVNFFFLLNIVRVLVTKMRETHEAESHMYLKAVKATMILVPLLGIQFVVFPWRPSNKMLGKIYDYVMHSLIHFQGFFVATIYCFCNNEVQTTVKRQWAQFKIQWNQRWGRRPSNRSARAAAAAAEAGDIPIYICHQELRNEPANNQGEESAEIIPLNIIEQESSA
T2 sequence (looked up) 2: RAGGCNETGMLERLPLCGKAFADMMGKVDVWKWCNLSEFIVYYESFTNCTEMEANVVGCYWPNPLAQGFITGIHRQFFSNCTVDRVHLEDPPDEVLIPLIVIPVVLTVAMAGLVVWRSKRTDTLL
The assay can be described thus: cell-based or functional assay.

B1: N^1-[(4S)-4-carboxy-4-(17-carboxyheptadecanoylamino)butanoyl]-[Ala1,Ser2,Glu3, Leu4, Ser5,Ala7,Gln8,Glu14, His17, Pro25, Pro28, Pro29,Asp31,Glu35, … (peptide)
peptide: {C18 diacid-γGlu}-ASELSTAQTQRLAEFLHHFGPILPPTDVGSETP-NH2
SMILES: CC[C@H](C)[C@H](NC(=O)[C@@H]1CCCN1C(=O)CNC(=O)[C@H](Cc1ccccc1)NC(=O)[C@H](Cc1c[nH]cn1)NC(=O)[C@H](Cc1c[nH]cn1)NC(=O)[C@H](CC(C)C)NC(=O)[C@H](Cc1ccccc1)NC(=O)[C@H](CCC(=O)O)NC(=O)[C@H](C)NC(=O)[C@H](CC(C)C)NC(=O)[C@H](CCCNC(=N)N)NC(=O)[C@H](CCC(N)=O)NC(=O)[C@@H](NC(=O)[C@H](CCC(N)=O)NC(=O)[C@H](C)NC(=O)[C@@H](NC(=O)[C@H](CO)NC(=O)[C@H](CC(C)C)NC(=O)[C@H](CCC(=O)O)NC(=O)[C@H](CO)NC(=O)[C@H](C)NC(=O)CC[C@H](NC(=O)CCCCCCCCCCCCCCCCC(=O)O)C(=O)O)[C@@H](C)O)[C@@H](C)O)C(=O)N[C@@H](CC(C)C)C(=O)N1CCC[C@H]1C(=O)N1CCC[C@H]1C(=O)N[C@H](C(=O)N[C@@H](CC(=O)O)C(=O)N[C@H](C(=O)NCC(=O)N[C@@H](CO)C(=O)N[C@@H](CCC(=O)O)C(=O)N[C@H](C(=O)N1CCC[C@H]1C(N)=O)[C@@H](C)O)C(C)C)[C@@H](C)O
With B1, the “hCalcR potency, EC50 (pM); CRE-luciferase reporter in BHK cells” value (from here on “hCalcR potency, EC50 (pM)”) in assay [1] is 3.08 pM. Further, the “hAmyR3 potency, EC50 (pM); CRE-luciferase reporter in BHK cells” value (“hAmyR3 potency, EC50 (pM)” below) in assay [2] came out at 5.2 pM.

B2: N^1-[(4S)-4-carboxy-4-[[(4S)-4-carboxy-4-(17-carboxyheptadecanoylamino)butanoyl]amino]butanoyl]-[Ala1,Gly2,Ser3,Leu4,Ser5,Ala7,Gln8,Glu14,His17,Pro25,Pro28,Pro2 … (peptide)
peptide: {C18 diacid-γGlu-γGlu}-AGSLSTAQTQRLAEFLHHFGPILPPTDVGSETP-NH2
SMILES: CC[C@H](C)[C@H](NC(=O)[C@@H]1CCCN1C(=O)CNC(=O)[C@H](Cc1ccccc1)NC(=O)[C@H](Cc1c[nH]cn1)NC(=O)[C@H](Cc1c[nH]cn1)NC(=O)[C@H](CC(C)C)NC(=O)[C@H](Cc1ccccc1)NC(=O)[C@H](CCC(=O)O)NC(=O)[C@H](C)NC(=O)[C@H](CC(C)C)NC(=O)[C@H](CCCNC(=N)N)NC(=O)[C@H](CCC(N)=O)NC(=O)[C@@H](NC(=O)[C@H](CCC(N)=O)NC(=O)[C@H](C)NC(=O)[C@@H](NC(=O)[C@H](CO)NC(=O)[C@H](CC(C)C)NC(=O)[C@H](CO)NC(=O)CNC(=O)[C@H](C)NC(=O)CC[C@H](NC(=O)CC[C@H](NC(=O)CCCCCCCCCCCCCCCCC(=O)O)C(=O)O)C(=O)O)[C@@H](C)O)[C@@H](C)O)C(=O)N[C@@H](CC(C)C)C(=O)N1CCC[C@H]1C(=O)N1CCC[C@H]1C(=O)N[C@H](C(=O)N[C@@H](CC(=O)O)C(=O)N[C@H](C(=O)NCC(=O)N[C@@H](CO)C(=O)N[C@@H](CCC(=O)O)C(=O)N[C@H](C(=O)N1CCC[C@H]1C(N)=O)[C@@H](C)O)C(C)C)[C@@H](C)O
As to B2, the “hCalcR potency, EC50 (pM)” value in assay [1] was 2.07 pM. The “hAmyR3 potency, EC50 (pM)” value in assay [2] came to 2.37 pM.

B3: N^1-[(4S)-4-carboxy-4-[[(4S)-4-carboxy-4-(17-carboxyheptadecanoylamino)butanoyl]amino]butanoyl]-[Ala1,Ser2, His3, Leu4,Ser5,Ala7,Gln8,Glu14, His17, Pro25, … (peptide)
peptide: {C18 diacid-γGlu-γGlu}-ASHLSTAQTQRLAEFLHHFGPILPPTDVGSETY-NH2
SMILES: CC[C@H](C)[C@H](NC(=O)[C@@H]1CCCN1C(=O)CNC(=O)[C@H](Cc1ccccc1)NC(=O)[C@H](Cc1c[nH]cn1)NC(=O)[C@H](Cc1c[nH]cn1)NC(=O)[C@H](CC(C)C)NC(=O)[C@H](Cc1ccccc1)NC(=O)[C@H](CCC(=O)O)NC(=O)[C@H](C)NC(=O)[C@H](CC(C)C)NC(=O)[C@H](CCCNC(=N)N)NC(=O)[C@H](CCC(N)=O)NC(=O)[C@@H](NC(=O)[C@H](CCC(N)=O)NC(=O)[C@H](C)NC(=O)[C@@H](NC(=O)[C@H](CO)NC(=O)[C@H](CC(C)C)NC(=O)[C@H](Cc1c[nH]cn1)NC(=O)[C@H](CO)NC(=O)[C@H](C)NC(=O)CC[C@H](NC(=O)CC[C@H](NC(=O)CCCCCCCCCCCCCCCCC(=O)O)C(=O)O)C(=O)O)[C@@H](C)O)[C@@H](C)O)C(=O)N[C@@H](CC(C)C)C(=O)N1CCC[C@H]1C(=O)N1CCC[C@H]1C(=O)N[C@H](C(=O)N[C@@H](CC(=O)O)C(=O)N[C@H](C(=O)NCC(=O)N[C@@H](CO)C(=O)N[C@@H](CCC(=O)O)C(=O)N[C@H](C(=O)N[C@@H](Cc1ccc(O)cc1)C(N)=O)[C@@H](C)O)C(C)C)[C@@H](C)O
B3: in assay [1], the “hCalcR potency, EC50 (pM)” value was 15.7 pM. Besides, the “hAmyR3 potency, EC50 (pM)” value in assay [2] came to 5.71 pM.

B4: N^1-[(4S)-4-carboxy-4-[[(4S)-4-carboxy-4-(17-carboxyheptadecanoylamino)butanoyl]amino]butanoyl]-[Ala1,Ser2,His3,Leu4,Ser5,Ala7,Gln8,Glu14,His17,Pro25,Pro28,Pro2 … (peptide)
peptide: {C18 diacid-γGlu-γGlu}-ASHLSTAQTQRLAEFLHHFGPILPPTDVGSETP-NH2
SMILES: CC[C@H](C)[C@H](NC(=O)[C@@H]1CCCN1C(=O)CNC(=O)[C@H](Cc1ccccc1)NC(=O)[C@H](Cc1c[nH]cn1)NC(=O)[C@H](Cc1c[nH]cn1)NC(=O)[C@H](CC(C)C)NC(=O)[C@H](Cc1ccccc1)NC(=O)[C@H](CCC(=O)O)NC(=O)[C@H](C)NC(=O)[C@H](CC(C)C)NC(=O)[C@H](CCCNC(=N)N)NC(=O)[C@H](CCC(N)=O)NC(=O)[C@@H](NC(=O)[C@H](CCC(N)=O)NC(=O)[C@H](C)NC(=O)[C@@H](NC(=O)[C@H](CO)NC(=O)[C@H](CC(C)C)NC(=O)[C@H](Cc1c[nH]cn1)NC(=O)[C@H](CO)NC(=O)[C@H](C)NC(=O)CC[C@H](NC(=O)CC[C@H](NC(=O)CCCCCCCCCCCCCCCCC(=O)O)C(=O)O)C(=O)O)[C@@H](C)O)[C@@H](C)O)C(=O)N[C@@H](CC(C)C)C(=O)N1CCC[C@H]1C(=O)N1CCC[C@H]1C(=O)N[C@H](C(=O)N[C@@H](CC(=O)O)C(=O)N[C@H](C(=O)NCC(=O)N[C@@H](CO)C(=O)N[C@@H](CCC(=O)O)C(=O)N[C@H](C(=O)N1CCC[C@H]1C(N)=O)[C@@H](C)O)C(C)C)[C@@H](C)O
On to B4, for which the “hCalcR potency, EC50 (pM)” value in assay [1] was 2.13 pM. For the same molecule, in assay [2], the “hAmyR3 potency, EC50 (pM)” value was 2.03 pM.

B5: N^1-[(4S)-4-carboxy-4-(17-carboxyheptadecanoylamino)butanoyl]-[Ala1,Ser2,His3,Leu4,Ser5,Leu7,Gln8,Glu14,His17,Asp21,Pro22,Pro27,Asp31, Pro34,Asp35, … (peptide)
peptide: {C18 diacid-γGlu}-ASHLSTLQTQRLAEFLHHSSDPFGAIPSSTDVGPDTP-NH2
SMILES: CC[C@H](C)[C@H](NC(=O)[C@H](C)NC(=O)CNC(=O)[C@H](Cc1ccccc1)NC(=O)[C@@H]1CCCN1C(=O)[C@H](CC(=O)O)NC(=O)[C@H](CO)NC(=O)[C@H](CO)NC(=O)[C@H](Cc1c[nH]cn1)NC(=O)[C@H](Cc1c[nH]cn1)NC(=O)[C@H](CC(C)C)NC(=O)[C@H](Cc1ccccc1)NC(=O)[C@H](CCC(=O)O)NC(=O)[C@H](C)NC(=O)[C@H](CC(C)C)NC(=O)[C@H](CCCNC(=N)N)NC(=O)[C@H](CCC(N)=O)NC(=O)[C@@H](NC(=O)[C@H](CCC(N)=O)NC(=O)[C@H](CC(C)C)NC(=O)[C@@H](NC(=O)[C@H](CO)NC(=O)[C@H](CC(C)C)NC(=O)[C@H](Cc1c[nH]cn1)NC(=O)[C@H](CO)NC(=O)[C@H](C)NC(=O)CC[C@H](NC(=O)CCCCCCCCCCCCCCCCC(=O)O)C(=O)O)[C@@H](C)O)[C@@H](C)O)C(=O)N1CCC[C@H]1C(=O)N[C@@H](CO)C(=O)N[C@@H](CO)C(=O)N[C@H](C(=O)N[C@@H](CC(=O)O)C(=O)N[C@H](C(=O)NCC(=O)N1CCC[C@H]1C(=O)N[C@@H](CC(=O)O)C(=O)N[C@H](C(=O)N1CCC[C@H]1C(N)=O)[C@@H](C)O)C(C)C)[C@@H](C)O
Consider B5, for which, in assay [1], the “hCalcR potency, EC50 (pM)” value is 1.74 pM. Also, the “hAmyR3 potency, EC50 (pM)” value in assay [2] came to 1.69 pM.
